Data as given in PMC6467934, “Cell-Free and Yeast-Based Production of the Malarial Lactate Transporter, PfFNT, Delivers Comparable Yield and Protein Quality” (Frontiers in Pharmacology, 2019).

B1: Plasmodium falciparum lactate transporter PfFNT, produced in Pichia pastoris yeast (natural protein, UniProt O77389 1-309, looked up)
chain: MPPNNSKYVLDPVSIKSVCGGEESYIRCVEYGKKKAHYSNLNLLAKAILAGMFVGLCAHASGIAGGLFYYHKLREIVGASMSVFVYGFTFPIAFMCIICTGSDLFTGNTLAVTMALYEKKVKLLDYLRVMTISLFGNYVGAVSFAFFVSYLSGAFTNVHAVEKNHFFQFLNDIAEKKVHHTFVECVSLAVGCNIFVCLAVYFVLTLKDGAGYVFSVFFAVYAFAIAGYEHIIANIYTLNIALMVNTKITVYQAYIKNLLPTLLGNYIAGAIVLGLPLYFIYKEHYYNFERSKRDNNDAQMKSLSIELRN
notes: PfFNT, lactate transporter (formate-nitrite transporter family) of Plasmodium falciparum; monomer printed as 30 kDa, pentamer 150 kDa; Homopentamer; also called cell-based PfFNT; yeast-produced PfFNT; source: P. pastoris (PichiaPink), fermenter culture; membranes solubilized with LDAO, purified (Ni-NTA, size exclusion) in DM; not shown: His10, C-terminal, kept
B2: Plasmodium falciparum lactate transporter PfFNT, produced cell-free in an E. coli S30 extract (natural protein, UniProt O77389 1-309, looked up)
chain: B1 chain
notes: PfFNT, lactate transporter (formate-nitrite transporter family) of Plasmodium falciparum; codon-optimized open reading frame in pIVEX2.3; monomer printed as 30 kDa, pentamer 150 kDa; Homopentamer; A factor Xa digestion site lies between PfFNT and the C-terminal His10-tag; no cleavage is reported; also called cell-free PfFNT; cell-free produced PfFNT; source: E. coli S30 extract cell-free system …

Molecular target: the molecule itself
Assay: negative-stain transmission electron microscopy with class sums; purified, detergent-solubilized PfFNT (yeast-produced in DM, cell-free in Brij 78); uranyl acetate stain; reference-free alignment without any symmetry imposed

Protein	stoichiometry N
B1	5
B2	5
